What all share (assay): fluorescence polarisation; 25 °C; unlabeled Rb^P titrated against 1.5 nM TMR-E2F1^TD or 7.5 nM TMR-E7^LxCxE; 25 mM Tris pH 8.0, 200 mM NaCl, 1 mM DTT, 0.1% Tween-20; 2 min incubation; quadratic fit; apparent Kd for the variants, Kd for WT
Holding throughout (settings): both partners purified
For orientation: Fluorescence polarisation rises when a labelled molecule tumbles more slowly, as on binding a larger partner.

For one experiment, the target named is T1, Rb^P A490S (human, UniProt P06400 380-788, A490S).
T1 construct: also called variant 15
T1 sequence (looked up): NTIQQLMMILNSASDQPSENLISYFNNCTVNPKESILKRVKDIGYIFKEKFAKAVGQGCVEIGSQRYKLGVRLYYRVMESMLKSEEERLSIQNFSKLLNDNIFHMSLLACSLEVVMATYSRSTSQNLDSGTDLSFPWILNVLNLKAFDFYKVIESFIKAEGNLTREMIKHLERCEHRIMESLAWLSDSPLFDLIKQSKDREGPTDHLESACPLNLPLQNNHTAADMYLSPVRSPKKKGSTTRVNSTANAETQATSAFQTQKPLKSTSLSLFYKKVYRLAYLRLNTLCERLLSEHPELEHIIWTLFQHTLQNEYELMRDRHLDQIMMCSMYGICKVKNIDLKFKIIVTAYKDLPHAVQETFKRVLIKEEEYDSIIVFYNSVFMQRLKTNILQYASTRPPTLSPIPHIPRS

Another experiment concerns the target T2, Rb^P Q444L (human, UniProt P06400 380-788, Q444L).
T2 construct: also called variant 3
T2 sequence (looked up): T1 sequence (looked up) with Q65L, S111A

For the next experiment, the target named is T3, Rb^P R668H (human, UniProt P06400 380-788, R668H).
T3 construct: also called variant 52
T3 sequence (looked up): T1 sequence (looked up) with S111A, R289H

The target in a further experiment is T4, Rb^P E675Q (human, UniProt P06400 380-788, E675Q).
T4 construct: also called variant 56
T4 sequence (looked up): T1 sequence (looked up) with S111A, E296Q

The target in another experiment is T5, Rb^P R451C (human, UniProt P06400 380-788, R451C).
T5 construct: also called variant 5
T5 sequence (looked up): T1 sequence (looked up) with R72C, S111A

Numbering of substitutions follows the chain as printed. In names and notes the source's numbering stands. No end group written: not given here. TMR = tetramethyl rhodamine dye

B1: TMR-E2F1^TD, peptide of the E2F1 transactivation domain (peptide)
peptide: {TMR}-GEGIRDLFDCDFGDLTPLD
notes: also called E2F^TD; source: synthetic peptide, bought: GenScript
In the case of B1, the Kd with Rb^P A490S worked out at 17 nM; in the experiment with Rb^P Q444L, 14 nM; in the experiment with Rb^P R668H, 13 nM; with Rb^P E675Q, 35 nM; with Rb^P R451C, 33 nM.

B2: TMR-E7^LxCxE, LxCxE peptide of the E7 oncoprotein from HPV (peptide)
peptide: DLYCYEQLN
modifications: also: TMR label, position not given here
notes: source: synthetic peptide, bought: GenScript
As for B2, the Kd in the experiment with Rb^P A490S came out at 7 nM; with Rb^P Q444L it was 4 nM; with Rb^P R668H it was 7 nM; with Rb^P E675Q, 20 nM; in the experiment with Rb^P R451C it was 7 nM.

For the origin of these results see PMC11931385, “Structural and functional analysis of cancer-associated missense variants in the retinoblastoma protein pocket domain” (The Journal of Biological Chemistry, 2025).
